Results on two molecules are retold here after US20210139582A1 (published 2021).

Where a chain is given by its changes, count along the chain named. Names and notes keep the numbering of the source.

Test [1] has as its target T1, His-tagged soluble mouse FcRn (recombinant, insect cell produced) (mouse, UniProt Q61559 22-290). The test can be described thus: method not stated; acidic pH.
The target of test [2] is T1, His-tagged soluble mouse FcRn …. Briefly: method not stated; neutral pH.
The target of test [3] is T2, C-terminus biotinylated monomeric human CD32a^H (FcγRIIa, histidine-131 variant), recombinant (human, UniProt P12318 34-218, limits assumed, C-terminus biotinylated (site-specific)).
T2 construct: Captured on neutravidin (ELISA plates or CM5 chips); Bought reagent; also called CD32a-H131
T2 sequence (looked up): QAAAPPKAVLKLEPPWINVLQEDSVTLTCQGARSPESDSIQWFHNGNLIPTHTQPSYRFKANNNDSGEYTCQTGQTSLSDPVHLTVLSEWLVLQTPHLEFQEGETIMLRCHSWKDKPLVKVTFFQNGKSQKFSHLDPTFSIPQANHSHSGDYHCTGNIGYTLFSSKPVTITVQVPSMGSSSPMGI
The test can be described thus: SPR, estimated steady state KD, monomeric IgG, pH 7.4.

T1 sequence (Q61559 22-290): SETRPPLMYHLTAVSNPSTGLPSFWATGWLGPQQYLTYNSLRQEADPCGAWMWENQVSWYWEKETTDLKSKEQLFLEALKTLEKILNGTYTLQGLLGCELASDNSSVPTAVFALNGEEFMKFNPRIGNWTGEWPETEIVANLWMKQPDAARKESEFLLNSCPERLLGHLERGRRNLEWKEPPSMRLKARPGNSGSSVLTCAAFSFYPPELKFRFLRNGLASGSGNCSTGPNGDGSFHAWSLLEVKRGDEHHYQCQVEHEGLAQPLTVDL

B1: anti-NIP hIgG1-M252Y/S254T/T256E/H433K/N434F (hIgG1^MST/HN) (antibody)
chain: ASTKGPSVFPLAPSSKSTSGGTAALGCLVKDYFPEPVTVSWNSGALTSGVHTFPAVLQSSGLYSLSSVVTVPSSSLGTQTYICNVNHKPSNTKVDKKVEPKSCDKTHTCPPCPAPELLGGPSVFLFPPKPKDTLYITREPEVTCVVVDVSHEDPEVKFNWYVDGVEVHNAKTKPREEQYNSTYRVVSVLTVLHQDWLNGKEYKCKVSNKALPAPIEKTISKAKGQPREPQVYTLPPSRDELTKNQVSLTCLVKGFYPSDIAVEWESNGQPENNYKTTPPVLDSDGSFFLYSKLTVDKSRWQQGNVFSCSVMHEALKFHYTQKSLSLSPGK
Take B1: the equilibrium dissociation constant (Kd) in test [1] was 1.2 nM; in test [2], 7.4 nM; in test [3] it was 2800 nM.

B2: anti-NIP hIgG1-I253A/H310A/H435A (hIgG1^IHH) (antibody)
chain: B1 chain with Y135M, I136A, T137S, E139T, H193A, K316H, F317N, H318A
For the molecule B2, the Kd in test [3] was 4800 nM.
